Measurements: the supplement of paper PMC7125110
± gives the standard error. For some assays here: Variants at the floor of the assay were thinned out.

B1: glmS ribozyme (parent)
chain: AUAAAAGCGCCAGAACUACAGAAAUGUAGUUGACGAGGAGGAGGUUUAUCGAAUUUUCGGCGGAUGCCUCCAAA

Columns and labels:
Settings in all cases: with glucosamine-6-phosphate
glucosamine-6-phosphate [1] = variants of: B1; experiment: kcat; higher = faster cleavage; RNA array
In short: (§1)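 Weighted Michaelis–Menten fits across concentrations supplied kcat and KM, based on kobs from one- or two-exponential decay fits to normalised per-tile medians. The data came from barcoded ribozyme variants transcribed in situ by E. coli RNA polymerase on sequenced MiSeq chips and tracked at 37 °C by a hybridised Cy3 probe. Glucosamine-6-phosphate (40 μM to 10 mM) in HEPES/KCl/Mg(OAc)2 buffer was flowed in.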

glucosamine-6-phosphate [2] = variants of: B1; experiment: self-cleavage kobs at 2500 uM GlcN6P; higher = faster cleavage; RNA array
In short: as §1

glucosamine-6-phosphate [3] = variants of: B1; experiment: self-cleavage kobs at 10000 uM GlcN6P; higher = faster cleavage; RNA array
In short: as §1

glucosamine-6-phosphate [4] = variants of: B1; experiment: self-cleavage kobs at 640 uM GlcN6P; higher = faster cleavage; RNA array
In short: as §1

glucosamine-6-phosphate [5] = variants of: B1; experiment: self-cleavage kobs at 40 uM GlcN6P; higher = faster cleavage; RNA array
In short: as §1

glucosamine-6-phosphate [6] = variants of: B1; experiment: self-cleavage kobs at 160 uM GlcN6P; higher = faster cleavage; RNA array
In short: as §1

glucosamine-6-phosphate [7] = variants of: B1; experiment: KM; higher = weaker cofactor use; RNA array
In short: as §1

| Variant | kcat (glucosamine-6-phosphate [1]) | self-cleavage kobs at 2500 uM GlcN6P (glucosamine-6-phosphate [2]) | self-cleavage kobs at 10000 uM GlcN6P (glucosamine-6-phosphate [3]) | self-cleavage kobs at 640 uM GlcN6P (glucosamine-6-phosphate [4]) | self-cleavage kobs at 40 uM GlcN6P (glucosamine-6-phosphate [5]) | self-cleavage kobs at 160 uM GlcN6P (glucosamine-6-phosphate [6]) | KM (glucosamine-6-phosphate [7]) |
| --- | --- | --- | --- | --- | --- | --- | --- |
| C58U A64G | 0.00011 ± 1.9e-05 s⁻¹ | 5.74e-05 ± 1.1e-05 s⁻¹ | 8.51e-05 ± 1.1e-05 s⁻¹ |  |  |  |  |
| G59C C70G | 1.6e-05 ± 3.6e-06 s⁻¹ |  |  |  |  |  |  |
| C58A C71A | 5.74e-05 ± 1e-05 s⁻¹ | 7.33e-05 ± 1.5e-05 s⁻¹ | 4.88e-05 ± 9.7e-06 s⁻¹ | 3.29e-05 ± 1.3e-05 s⁻¹ |  |  |  |
| U57G C71A | 3.11e-05 ± 9.7e-06 s⁻¹ | 3.2e-05 ± 1.5e-05 s⁻¹ |  | 4.65e-05 ± 1.5e-05 s⁻¹ |  |  |  |
| U56G C71G | 0.000632 ± 0.00018 s⁻¹ | 0.000512 ± 0.0001 s⁻¹ | 0.000942 ± 0.00021 s⁻¹ | 0.000271 ± 4.6e-05 s⁻¹ | 6.71e-05 ± 1.8e-05 s⁻¹ | 0.00014 ± 2.1e-05 s⁻¹ |  |
| G63A C70A | 1.85e-05 ± 4.5e-06 s⁻¹ |  |  |  |  |  |  |
| U54G A64U | 9.79e-05 ± 1.5e-05 s⁻¹ | 7.47e-05 ± 9.1e-06 s⁻¹ | 8.01e-05 ± 8e-06 s⁻¹ | 1.94e-05 ± 7.4e-06 s⁻¹ |  |  |  |
| G62U C67A | < 1e-05 s⁻¹ |  | < 1e-05 s⁻¹ |  | < 1e-05 s⁻¹ |  |  |
| U55C G62C | 1.58e-05 ± 2.1e-06 s⁻¹ |  |  |  |  |  | 1220 ± 460 µM |
| U57A C58U | 6.53e-05 ± 2.8e-06 s⁻¹ |  | 2.39e-05 ± 8.3e-06 s⁻¹ |  |  |  |  |
| U54A U56G | 0.0107 ± 0.0029 s⁻¹ | 0.00548 ± 0.00089 s⁻¹ | 0.0131 ± 0.0038 s⁻¹ | 0.00363 ± 0.00057 s⁻¹ | 0.000226 ± 4.9e-05 s⁻¹ | 0.000857 ± 0.00017 s⁻¹ | 1740 ± 650 µM |
| U54G U57G | 3.71e-05 ± 3.7e-06 s⁻¹ |  | 3.21e-05 ± 1.2e-05 s⁻¹ |  |  |  | 1500 ± 710 µM |
| U54G U57A | 0.000134 ± 2.6e-05 s⁻¹ | 0.000118 ± 3.3e-05 s⁻¹ | 0.00011 ± 2.1e-05 s⁻¹ | 3.49e-05 ± 1.2e-05 s⁻¹ |  |  | 1540 ± 760 µM |
| U54C C67A | 0.00598 ± 0.0014 s⁻¹ |  | 0.00521 ± 0.00071 s⁻¹ | 0.00199 ± 0.00058 s⁻¹ | 0.000198 ± 3.2e-05 s⁻¹ | 0.000315 ± 0.00012 s⁻¹ | 1580 ± 590 µM |
| U54C C67G | 0.000821 ± 0.00019 s⁻¹ | 0.000553 ± 8.6e-05 s⁻¹ | 0.00137 ± 0.00026 s⁻¹ | 0.000519 ± 7.3e-05 s⁻¹ | 5.95e-05 ± 1.1e-05 s⁻¹ | 0.000179 ± 2.6e-05 s⁻¹ | 534 ± 220 µM |
| C58G C67G C70G | 5.76e-05 ± 2.6e-05 s⁻¹ | 8.09e-05 ± 3e-05 s⁻¹ |  | 6.3e-05 ± 2.3e-05 s⁻¹ |  |  |  |
| U56G U57G | < 1e-05 s⁻¹ |  | < 1e-05 s⁻¹ |  |  |  |  |
| C61U U69A | 4.43e-05 ± 1.5e-05 s⁻¹ | 6.76e-05 ± 1.9e-05 s⁻¹ |  | 4.2e-05 ± 1.3e-05 s⁻¹ |  | 3.86e-05 ± 1.8e-05 s⁻¹ |  |
| C61U U69G | 1.8e-05 ± 3.9e-06 s⁻¹ |  |  |  |  |  |  |

| Variant | kcat (glucosamine-6-phosphate [1]) | self-cleavage kobs at 2500 uM GlcN6P (glucosamine-6-phosphate [2]) | self-cleavage kobs at 10000 uM GlcN6P (glucosamine-6-phosphate [3]) | self-cleavage kobs at 640 uM GlcN6P (glucosamine-6-phosphate [4]) | self-cleavage kobs at 40 uM GlcN6P (glucosamine-6-phosphate [5]) | self-cleavage kobs at 160 uM GlcN6P (glucosamine-6-phosphate [6]) | KM (glucosamine-6-phosphate [7]) |
| --- | --- | --- | --- | --- | --- | --- | --- |
| G60A A64G | 2.24e-05 ± 4.8e-07 s⁻¹ |  |  |  |  |  | 1390 ± 160 µM |
| U54C G62C | < 1e-05 s⁻¹ | < 1e-05 s⁻¹ |  | < 1e-05 s⁻¹ | < 1e-05 s⁻¹ | < 1e-05 s⁻¹ | 133 ± 48 µM |
| U54C G66U | 0.0027 ± 0.00084 s⁻¹ | 0.00132 ± 0.0002 s⁻¹ | 0.00199 ± 0.00024 s⁻¹ | 0.000359 ± 6.3e-05 s⁻¹ | 6.62e-05 ± 1.2e-05 s⁻¹ | 0.000108 ± 2.3e-05 s⁻¹ | 3380 ± 1600 µM |
| G59A A64G | 9.06e-05 ± 1.3e-05 s⁻¹ | 6.66e-05 ± 2.7e-05 s⁻¹ | 7.67e-05 ± 1.6e-05 s⁻¹ |  | < 1e-05 s⁻¹ |  |  |
| U54G G59A | 9.1e-05 ± 6.5e-06 s⁻¹ | 6.93e-05 ± 2.3e-05 s⁻¹ | 8.23e-05 ± 3e-05 s⁻¹ |  |  |  | 858 ± 300 µM |
| U54G G59U | 3.86e-05 ± 1.5e-06 s⁻¹ | 3.03e-05 ± 9.3e-06 s⁻¹ | 3.71e-05 ± 6.4e-06 s⁻¹ |  |  |  | 544 ± 170 µM |
| U55A G59A | 6.57e-05 ± 1.4e-05 s⁻¹ | 5.76e-05 ± 1.7e-05 s⁻¹ | 5.69e-05 ± 1.3e-05 s⁻¹ |  |  |  |  |
| G62U C68A | 1.34e-05 ± 8.7e-07 s⁻¹ |  |  |  |  |  | 129 ± 56 µM |
| G62U C68U | 1.22e-05 ± 1.2e-06 s⁻¹ |  |  | < 1e-05 s⁻¹ |  |  |  |
| G59C C67A | < 1e-05 s⁻¹ |  | < 1e-05 s⁻¹ |  | < 1e-05 s⁻¹ |  |  |
| U56G G59C | < 1e-05 s⁻¹ |  |  | < 1e-05 s⁻¹ | < 1e-05 s⁻¹ | < 1e-05 s⁻¹ |  |
| U56G G59A | 5.14e-05 ± 3e-06 s⁻¹ | 3e-05 ± 8.2e-06 s⁻¹ | 4.3e-05 ± 6.1e-06 s⁻¹ |  |  |  | 1920 ± 460 µM |
| A53U G66C | 0.000389 ± 9.5e-05 s⁻¹ | 0.000187 ± 4.6e-05 s⁻¹ | 0.000387 ± 0.00011 s⁻¹ | 0.000103 ± 2.5e-05 s⁻¹ |  |  | 1980 ± 890 µM |
| U57C C68U | 6e-05 ± 5.6e-07 s⁻¹ | 3.96e-05 ± 1.4e-05 s⁻¹ | 5.36e-05 ± 6e-06 s⁻¹ |  |  |  | 1210 ± 64 µM |
| U57C C68A | 1.48e-05 ± 1.3e-06 s⁻¹ |  | < 1e-05 s⁻¹ |  |  |  | 184 ± 90 µM |
| C58A G62A | < 1e-05 s⁻¹ |  |  | < 1e-05 s⁻¹ | < 1e-05 s⁻¹ |  |  |
| U56G C70A | 4.56e-05 ± 9.3e-06 s⁻¹ | 6.95e-05 ± 1.6e-05 s⁻¹ | 3.66e-05 ± 8.6e-06 s⁻¹ | 7.43e-05 ± 3e-05 s⁻¹ |  | 3.41e-05 ± 1.7e-05 s⁻¹ |  |
| U56G C70G | 9.25e-05 ± 3.2e-06 s⁻¹ | 9.14e-05 ± 1.1e-05 s⁻¹ | 9.54e-05 ± 9.8e-06 s⁻¹ | 8.21e-05 ± 8.7e-06 s⁻¹ | 4.14e-05 ± 9.7e-06 s⁻¹ | 6.12e-05 ± 1e-05 s⁻¹ | 61.4 ± 13 µM |
| U54G C58U | 0.000129 ± 7.5e-06 s⁻¹ | 3.75e-05 ± 1.2e-05 s⁻¹ | 7.98e-05 ± 9.4e-06 s⁻¹ |  |  |  | 6130 ± 820 µM |
